Source: US20220177548A1 (WISTAR INSTITUTE OF ANATOMY AND BIOLOGY, published 2022)

Target: HLA-A2 (on T2 cells) (human)
Assay: T2 cell binding assay, fluorescence index by flow cytometry

Binder	T2 Binding (FI)
LITEKSRWSG (Synthetic 10-mer) [Modified 1 (modified BRAFV600E peptide LITEKSRWSG)]	1 FI = (MFI peptide/MFI w/o peptide) - 1
LATEKSRWSG (Synthetic 10-mer) [Unmodified 2 (human BRAFV600E peptide LATEKSRWSG, amino acids 597-606 of BRAFV600E)]	1.1 FI = (MFI peptide/MFI w/o peptide) - 1
LLTEKSRWSV (Synthetic 10-mer) [Modified 4 (modified BRAFV600E peptide LLTEKSRWSV)]	6.5 FI = (MFI peptide/MFI w/o peptide) - 1
LATEKSRWSL (Synthetic 10-mer) [Modified 6 (modified BRAFV600E peptide LATEKSRWSL)]	0.6 FI = (MFI peptide/MFI w/o peptide) - 1
LATEKSRWSI (Synthetic 10-mer) [Modified 5 (modified BRAFV600E peptide LATEKSRWSI)]	0.7 FI = (MFI peptide/MFI w/o peptide) - 1
LATEKSRWSV (Synthetic 10-mer) [Modified 7 (modified BRAFV600E peptide LATEKSRWSV)]	1 FI = (MFI peptide/MFI w/o peptide) - 1
LMTEKSRWSG (Synthetic 10-mer) [Modified 2 (modified BRAFV600E peptide LMTEKSRWSG)]	0.8 FI = (MFI peptide/MFI w/o peptide) - 1
LLTEKSRWSG (Synthetic 10-mer) [Modified 3 (modified BRAFV600E peptide LLTEKSRWSG)]	0.9 FI = (MFI peptide/MFI w/o peptide) - 1
